Test results from patent publication US20240294670A1 (University of Texas, published 2024).

B1: humanized C59 antibody C59Hu (antibody, V domains shown)
VH: EVQLVESGGGLVQPGGSLRLSCAASGFTISSDYYMCWVRQAPGKGLEWIGCIYIGSGTDTYYADSVKGRFTISKHNSKNTLYLQMTSLRAEDTAVYYCARDKGWSNAWGFYFQLWGQGTLVTVSS
VL: DIQMTQSPSSLSASVGDRVTITCQASQSIGKYLNWYQQKPGKAPKLLIYSSSSLASGVPSRFSGSGFGTDFTLTISSLQPEDFATYYCQQGYSYVDLENGFGGGTKVEIK
notes: Humanized form of C59
B2: anti-CHI3L1 monoclonal antibody C27 (antibody, V domains shown)
VH: QSVEESGGGLVKPEGSLTLTCTASGFSFSYRYYMCWVRQAPGKGLEWIGCIDNGDGDTYYASWVNGRFTISKASSTTVTLQMTSLTAADTATYFCARGSSGYNGFNFWGPGTLVTVSS
VL: ALVMTQTPASVSAAVAGTVTIKCQASQSIGSYLAWYQQKPGQPPKLLIYATSILASGVSSRLKGSRSGTEYTLTISDLECADAATYYCQCGYYDSNYGGAFGGGTEVVVK
notes: Rabbit mAb
B3: anti-CHI3L1 monoclonal antibody C56 (antibody, V domains shown)
VH: QEQLVESGGDLVKPGASLTLTCTASGFSFSSSYWICWVRQAPGKGLELIACIYPSSSGSTDYASWAKGRFTISKTSSTTVTLQMTSLTAADTATYFCARDIPYNIHGYTTGFNLWGPGTLVTVSS
VL: ALVMTQTPASVEAAVGGTVTIKCQASQSIGSNLAWYQQKPGQPPKLLIYSASTLASGVSSRFKGSRSGTEFTLTISDLECADAATYYCQFTYYGSSDVDVFGGGTKVVVE
notes: Rabbit mAb from single B cells, expressed as full length IgG in HEK293
B4: anti-CHI3L1 monoclonal antibody C25 (antibody, V domains shown)
VH: QSVEESGGDLVKPGASLTLTCTASGFSFSSSYYMCWVRQAPGKGLEWIACIYAGSSGSTWYASWAKGRFTISITSSTTVTLQMTSLTAADTATYFCARDRYGGGSYYIPYYFDLWGPGTLVTVSS
VL: ALVMTQTPSPVSAAVGGTVTINCQASQNIYVDSYLAWYQQKSGQPPKLLIYYASSLASGVPSRFSGSGSGTQFTLTISDLECDDAATYYCAGGYSADSDNAFGGGTEVVVK
notes: Rabbit mAb
B5: humanized C7 antibody C7Hu (antibody, V domains shown)
VH: QVQLVESGGGVVQPGRSLRLSCAASGFTLTTYWVCWVRQAPGKGLEWVACIDAGSITYYTTWARGRFTISRDNSTNTLFLQMNSLRAEDTAVYYCARDAHYTYALVLWGRGTLVTVSS
VL: DIQMTQSPSSVSASVGDRVTIKCQASEDIESYLAWYQQKPGKAPKLLIYDASDLASGVPSRFSGSGSGTDFTLTISSLQPEDAATYYCQGYSYGSSYVGFGGGTKVEIK
notes: Humanized form of C7
B6: anti-CHI3L1 monoclonal antibody C28 (antibody, V domains shown)
VH: QQLKESGGDLVKPGASLTLTCTASGFSFSSGYYMCWVRQAPGKGLEWIACIGASSGLTNYASWAKGRFTISKTSSTTVTLRMTSLTAADTATYFCARVYLGGADYEQFNLWGPGTLVTVSS
VL: AQVLTQTPSSASEPVGGTVTIKCQAGESVSSRVAWYQQKPGQPPKLLIFDASALASGVSSRFTGSGSGTQFTLTISDLECADAATYYCQNYYGISGVAFGGGTEVVVK
notes: Rabbit mAb
B7: anti-CHI3L1 monoclonal antibody C29 (antibody, V domains shown)
VH: QEQLVESGGDLVKPEGSLTLTCTASGFSFSDNYWMCWVRQAPGKGLEWIGCIYIGFSGTTYYASWAKGRFTISKASSTTVTLQMTSLTGADTATYFCARGVFYVGSGYWYYLNLWGPGTLVTISS
VL: DVVMTQTPSSVSAAVGGTVTIKCQASQSIASYLAWYQQKPGQPPKLLIYRASTLASGVPSRFKGSGSGTEYTLTISDLECADAATYYCQTTYVGGSGNAFGGGTKVEIK
notes: Rabbit mAb
B8: anti-CHI3L1 monoclonal antibody C59 (antibody, V domains shown)
VH: QSVEESGGDLVKPGASLTLTCTASGFTISSDYYMCWVRQAPGKGLEWIGCIYIGSGTDTYYASWAKGRFTISKTSSTTVTLQMTSLTAADTATYFCARDKGWSNAWGFYFQLWGPGTLVTVSS
VL: DPVLTQTPASVEVPVGGTVTINCQASQSIGKYLNWYQQKPGQPPKLLIYSSSSLASGVSSRFKGSGFGTQFTLTISGVQCADAATYYCQQGYSYVDLENGFGGGTELEIL
notes: Rabbit mAb from single B cells, expressed as full length IgG in HEK293; also called clone 59; C59mAb
B9: anti-CHI3L1 monoclonal antibody C53 (antibody, V domains shown)
VH: QEQLVESGGDLVKPGASLTLTCTASGFSFSSSHYMCWVRQAPGKGLEWIACIYLGDDSTYYASWVNGRFSISKTSSTTVTLQMTSLTAADTATYFCARHGYNLAIHNYIIWGPGTLVTVSS
VL: DVVMTQTPSSVEAGVGGTVTIKCQASESSSRHLSWYQQKPGQRPKLLIYWASTLASGVPSRFQGSGSGTEFTLTISDLECADAATYYCQSYYGLSNNGWRYAFGGGTEVVVK
notes: as for B3

Key:
recombinant human CHI3L1 [1] = target: T1, recombinant human CHI3L1 (human, UniProt P36222 22-383); test: Octet BLI
T1 construct: His-tagged recombinant protein (Sino Biological 11227-H08H, or in-house HEK293 protein with 6xHIS-tag and avi-tag); also called hCHI3L1; hChi3l1

recombinant mouse CHI3L1 [2] = target: T2, recombinant mouse CHI3L1 (mouse, UniProt Q61362 30-389, limits assumed); test: Octet BLI
T2 construct: His-tagged; also called mCHI3L1; mChi3l1

recombinant mouse CHI3L1 [3] = target: T2, recombinant mouse CHI3L1; test: ELISA: mouse CHI3L1 coated on the plate, B cell culture supernatant 100 ul/well, A450
Description: (§1) FIG. 7. The ELISA binding of the supernatant antibody to the human CHI3L1. (hCHI3L1), and mouse CHI3L1 (mCHI3L1). The CHI3L1 protein was coated on maxi-sorp 96-well plates, cell culture supernatant (100 ul/well) was used for binding on the antigen coated plate. Binding signals (A450 nm) are shown in Y-axis and CHI3L1 mAbs are shown on X-axis.
(§2) Binding affinity of anti-CHI3L1 monoclonal antibodies to the CHI3L1 protein using ELISA method. Binding of CHI3L1 by monoclonal antibodies was first screened by ELISA using supernatants collected from the B cell cultures and cross reactivity to mouse CHI3L1 protein was determined (FIG. 7).

recombinant human CHI3L1 [4] = target: T1, recombinant human CHI3L1; test: ELISA: human CHI3L1 coated on the plate, B cell culture supernatant 100 ul/well, A450
Description: as §1, §2

recombinant human CHI3L1 [5] = target: T1, recombinant human CHI3L1; test: BLI (Octet), mAb on protein A sensor, CHI3L1 in solution, 1:1 fit
Description: (§3) FIG. 8. Kinetic binding sensorgrams collected on Octet instrument for determination of kon and koff rates for each CHI3L1 antibody.
(§4) Binding affinity of anti-CHI3L1 monoclonal antibodies determined using Bio-layer interferometry (BLI), a sensor-based Octet instrument. […] Following by kinetics buffer washing to baseline, the loaded biosensors were exposed to a series of recombinant CHI3L1 protein at 0.1-200 nM range and background subtraction was used to correct for any background from sensor drifting. All experiments were performed with shaking at 1,000 rpm. Background wavelength shifts were measured from reference biosensors that were loaded with antibody and followed with buffer without antigen. ForteBio's data analysis software was used to fit the data to a 1:1 binding model to extract an association rate and dissociation rate. The KD was calculated using the ratio of koff/kon and the estimated values of KD for CHI3L1 mAbs in Table C.

recombinant mouse CHI3L1 [6] = target: T2, recombinant mouse CHI3L1; test: as above
Description: as §3, §4

T1 sequence (P36222 22-383 limits assumed): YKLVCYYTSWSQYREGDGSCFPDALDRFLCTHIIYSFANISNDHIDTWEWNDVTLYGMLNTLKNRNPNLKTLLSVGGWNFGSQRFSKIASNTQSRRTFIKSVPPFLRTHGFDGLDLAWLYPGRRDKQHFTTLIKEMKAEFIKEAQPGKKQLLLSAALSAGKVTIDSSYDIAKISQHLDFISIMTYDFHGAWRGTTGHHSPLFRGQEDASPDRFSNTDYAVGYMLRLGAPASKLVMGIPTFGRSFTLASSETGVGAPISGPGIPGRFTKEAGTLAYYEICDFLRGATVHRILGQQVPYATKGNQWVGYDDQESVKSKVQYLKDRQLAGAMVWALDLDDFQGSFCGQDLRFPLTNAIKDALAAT
T2 sequence (Q61362 30-389 limits assumed): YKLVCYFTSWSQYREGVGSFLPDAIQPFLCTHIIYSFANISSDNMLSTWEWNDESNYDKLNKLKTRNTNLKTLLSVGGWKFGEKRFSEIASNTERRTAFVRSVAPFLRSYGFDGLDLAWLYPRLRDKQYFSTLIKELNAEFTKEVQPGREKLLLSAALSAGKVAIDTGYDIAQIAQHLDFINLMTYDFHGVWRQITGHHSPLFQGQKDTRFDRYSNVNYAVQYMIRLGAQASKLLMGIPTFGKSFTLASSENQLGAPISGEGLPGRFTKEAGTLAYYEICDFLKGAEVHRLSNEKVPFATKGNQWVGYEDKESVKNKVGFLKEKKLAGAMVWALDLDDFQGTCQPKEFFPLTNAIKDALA

Binder | binding result (recombinant mouse CHI3L1 [3]) | binding result (recombinant human CHI3L1 [4]) | Kd (recombinant human CHI3L1 [5]) | koff (recombinant human CHI3L1 [5]) | kon (recombinant human CHI3L1 [5]) | Kd (recombinant mouse CHI3L1 [6]) | koff (recombinant mouse CHI3L1 [6]) | kon (recombinant mouse CHI3L1 [6]) | further results
B1 | – | – | – | – | – | – | – | – | Kd (recombinant human CHI3L1 [1]): 4.5 nM; koff (recombinant human CHI3L1 [1]): 0.000635 s⁻¹; kon (recombinant human CHI3L1 [1]): 141000 M⁻¹ s⁻¹; Kd (recombinant mouse CHI3L1 [2]): 4.44 nM; koff (recombinant mouse CHI3L1 [2]): 0.00095 s⁻¹; kon (recombinant mouse CHI3L1 [2]): 214000 M⁻¹ s⁻¹
B2 | no binding | binds | – | – | – | – | – | – | –
B3 | – | – | < 0.001 nM | < 1e-07 s⁻¹ | 189000 M⁻¹ s⁻¹ | 7.92 nM | 0.000592 s⁻¹ | 74800 M⁻¹ s⁻¹ | –
B4 | no binding | binds | – | – | – | – | – | – | –
B5 | – | – | – | – | – | – | – | – | Kd (recombinant human CHI3L1 [1]): 0.88 nM; koff (recombinant human CHI3L1 [1]): 0.000492 s⁻¹; kon (recombinant human CHI3L1 [1]): 559000 M⁻¹ s⁻¹
B6 | no binding | binds | – | – | – | – | – | – | –
B7 | no binding | binds | – | – | – | – | – | – | –
B8 | – | – | 1.42 nM | 0.000235 s⁻¹ | 166000 M⁻¹ s⁻¹ | 3.43 nM | 0.000402 s⁻¹ | 117000 M⁻¹ s⁻¹ | –
B9 | – | – | < 0.001 nM | < 1e-07 s⁻¹ | 137000 M⁻¹ s⁻¹ | 3.54 nM | 0.000273 s⁻¹ | 77300 M⁻¹ s⁻¹ | –
